Measured values from the supplement of paper PMC9112550, “Optimization of the antimicrobial peptide Bac7 by deep mutational scanning” (BMC Biology, 2022).

Test system: Escherichia coli TOP10
Test: shrunken log2 fold change of peptide-encoding DNA abundance (4.5 h post-induction vs induction); higher = less antimicrobial activity (less host growth inhibition)
Details: time post-induction: 4.5 h; library: site-saturation at positions 5, 18, 19, 20
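Also: peptides expressed intracellularly from a pBAD plasmid library in pooled LB shake-flask culture, induced with 0.3% L-arabinose, DNA abundance read by NGS, three biological replicates, DESeq2 with apeglm shrinkage.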

## RRIRYRPPRLPRPRPRPTWNPRP
  shrunken log2 fold change: -0.424

## RRIRYRPPRLPRPRPRPTYAPRP
  shrunken log2 fold change: 3.45

## RRIRYRPPRLPRPRPRPVAPPRP
  shrunken log2 fold change: -0.0629

## RRIRYRPPRLPRPRPRPVAYPRP
  shrunken log2 fold change: -0.926

## RRIRYRPPRLPRPRPRPVCYPRP
  shrunken log2 fold change: -0.209

## RRIRYRPPRLPRPRPRPVGLPRP
  shrunken log2 fold change: 0.158

## RRIRYRPPRLPRPRPRPVHIPRP
  shrunken log2 fold change: -0.526

## RRIRYRPPRLPRPRPRPVHLPRP
  shrunken log2 fold change: -0.328

## RRIRYRPPRLPRPRPRPVIDPRP
  shrunken log2 fold change: -0.942

## RRIRYRPPRLPRPRPRPVKFPRP
  shrunken log2 fold change: -0.133

## RRIRYRPPRLPRPRPRPVKHPRP
  shrunken log2 fold change: -0.122

## RRIRYRPPRLPRPRPRPVKSPRP
  shrunken log2 fold change: -0.84

## RRIRYRPPRLPRPRPRPVMFPRP
  shrunken log2 fold change: -0.899

## RRIRYRPPRLPRPRPRPVMNPRP
  shrunken log2 fold change: -0.115

## RRIRYRPPRLPRPRPRPVMRPRP
  shrunken log2 fold change: 0.0461

## RRIRYRPPRLPRPRPRPVPFPRP
  shrunken log2 fold change: -0.348

## RRIRYRPPRLPRPRPRPVPGPRP
  shrunken log2 fold change: -0.151

## RRIRYRPPRLPRPRPRPVPNPRP
  shrunken log2 fold change: -0.0518

## RRIRYRPPRLPRPRPRPVRCPRP
  shrunken log2 fold change: 0.0877

## RRIRYRPPRLPRPRPRPVRQPRP
  shrunken log2 fold change: 0.132

## RRIRYRPPRLPRPRPRPVTSPRP
  shrunken log2 fold change: -0.168

## RRIRYRPPRLPRPRPRPVYAPRP
  shrunken log2 fold change: -0.683

## RRIRYRPPRLPRPRPRPVYNPRP
  shrunken log2 fold change: -0.394

## RRIRYRPPRLPRPRPRPWAAPRP
  shrunken log2 fold change: -0.0914

## RRIRYRPPRLPRPRPRPWCNPRP
  shrunken log2 fold change: -0.123

## RRIRYRPPRLPRPRPRPWCSPRP
  shrunken log2 fold change: -0.504

## RRIRYRPPRLPRPRPRPWCYPRP
  shrunken log2 fold change: -1.21

## RRIRYRPPRLPRPRPRPWFLPRP
  shrunken log2 fold change: -1.18

## RRIRYRPPRLPRPRPRPWGFPRP
  shrunken log2 fold change: -0.167

## RRIRYRPPRLPRPRPRPWGPPRP
  shrunken log2 fold change: -0.206

## RRIRYRPPRLPRPRPRPWHIPRP
  shrunken log2 fold change: -0.103

## RRIRYRPPRLPRPRPRPWHLPRP
  shrunken log2 fold change: -0.0873

## RRIRYRPPRLPRPRPRPWIWPRP
  shrunken log2 fold change: -0.000921

## RRIRYRPPRLPRPRPRPWKRPRP
  shrunken log2 fold change: 0.047

## RRIRYRPPRLPRPRPRPWLMPRP
  shrunken log2 fold change: -0.0285

## RRIRYRPPRLPRPRPRPWLQPRP
  shrunken log2 fold change: -0.216

## RRIRYRPPRLPRPRPRPWLWPRP
  shrunken log2 fold change: 0.0662

## RRIRYRPPRLPRPRPRPWMHPRP
  shrunken log2 fold change: -0.519

## RRIRYRPPRLPRPRPRPWMNPRP
  shrunken log2 fold change: -0.00197

## RRIRYRPPRLPRPRPRPWMSPRP
  shrunken log2 fold change: -0.0725

## RRIRYRPPRLPRPRPRPWNKPRP
  shrunken log2 fold change: -0.00965

## RRIRYRPPRLPRPRPRPWPHPRP
  shrunken log2 fold change: 0.0143

## RRIRYRPPRLPRPRPRPWQTPRP
  shrunken log2 fold change: -0.0202

## RRIRYRPPRLPRPRPRPWRIPRP
  shrunken log2 fold change: -0.297

## RRIRYRPPRLPRPRPRPWSWPRP
  shrunken log2 fold change: 0.0225

## RRIRYRPPRLPRPRPRPWVKPRP
  shrunken log2 fold change: 0.0136

## RRIRYRPPRLPRPRPRPWVWPRP
  shrunken log2 fold change: -0.111

## RRIRYRPPRLPRPRPRPWYFPRP
  shrunken log2 fold change: -0.15

## RRIRYRPPRLPRPRPRPWYTPRP
  shrunken log2 fold change: -1.81

## RRIRYRPPRLPRPRPRPYCRPRP
  shrunken log2 fold change: -0.377

## RRIRYRPPRLPRPRPRPYDLPRP
  shrunken log2 fold change: -0.0181

## RRIRYRPPRLPRPRPRPYDSPRP
  shrunken log2 fold change: -0.0285

## RRIRYRPPRLPRPRPRPYHWPRP
  shrunken log2 fold change: -0.115

## RRIRYRPPRLPRPRPRPYIWPRP
  shrunken log2 fold change: -0.29

## RRIRYRPPRLPRPRPRPYKMPRP
  shrunken log2 fold change: -0.277

## RRIRYRPPRLPRPRPRPYMRPRP
  shrunken log2 fold change: -1.01

## RRIRYRPPRLPRPRPRPYQAPRP
  shrunken log2 fold change: -0.0933

## RRIRYRPPRLPRPRPRPYSIPRP
  shrunken log2 fold change: -0.264

## RRIRYRPPRLPRPRPRPYTAPRP
  shrunken log2 fold change: 0.00143

## RRIRYRPPRLPRPRPRPYWDPRP
  shrunken log2 fold change: -0.483

## RRIRYRPPRLPRPRPRPYWHPRP
  shrunken log2 fold change: -0.451

## RRIRYRPPRLPRPRPRPYYAPRP
  shrunken log2 fold change: -0.634
